# Assay results reported in US7462695B2, “Insect chymotrypsin and inhibitors thereof” (Hexima Limited, priority 2003, dated 2008).
# B1: Bowman Birk: soybean Bowman Birk inhibitor, purchased from Sigma-Aldrich (protein, UniProt P01055 40-110, looked up)
# Bowman-Birk type proteinase …: DDESSKPCCDQCACTKSNPPQCRCSDMRLNSCHSACKSCICALSYPAQCFCVDITDFCYEPCKPSEDDKEN
# B2: StPotIA: PotI homolog cloned from wounded potato leaf RNA, alanine at P1 site (SEQ ID NO:81); E. coli expressed, His-tagged (protein)
# chain: MESKFAHIIVFFLLATSFETLMARKEGDGSEVIKLLKESESESWCKGKQFWPELIGVPTKLAKEIIEKENPSINDVPIILNGTPVPADFRCNRVRLFDNILGDVVQIPRVA
# modifications: His tag; potato
# notes: E. coli expressed, His-tagged
# Legend:
# [1] = target: bovine chymotrypsin (Bos taurus, UniProt P00766); test: Inhibition of bovine chymotrypsin; assay type: biochemical; settings: 100 ng bovine chymotrypsin, pH 10; for % Inhibition BC: at maximum concentration tested
# Description: (§1) Several proteinase inhibitors were tested for their ability to inhibit the activity of the insensitive chymotrypsins. The buffer used for all assays was 500 mM CAPS, 75 mM NaCl, 2.5 mM MgCl2 at pH 10.
# [2] = system: chymotrypsin activity in unfractionated gut extracts from H. punctigera; test: Chymotrypsin activity in unfractionated gut extracts with proteinase inhibitors (FIG. 3); assay type: biochemical, Helicoverpa punctigera; settings: larvae raised on haricot bean diet without added proteinase inhibitors; substrate SAAPFpNA
# Description: FIG. 3 is a graphical representation showing the effect of various proteinase inhibitors on the chymotrypsin activity in unfractionated gut extracts from H. punctigera. Proteinase inhibitors were mixed with 1 μg of protein from an unfractionated gut extract before incubation with the chymotrypsin substrate N-succinyl-Ala-Ala-Pro-Phe-p-nitroanilide. Inhibition is expressed as a percentage of the total activity in the control samples.
# Fourth-instar larvae were killed using ethyl-acetate prior the removal of individual gut which were then homogenized in a mortar and pestle in an equal amount [(w/v)] of 50 mM Tris-HCl, pH 8.0 containing 100 μM benzamidine. Insoluble material was removed by centrifugation at 20,000 rpm for 15 min at 4° C. and total protein concentration determined using the Bradford method (Bradford, Anal Biochem 72: 248-254, 1976) with reagents from BioRad and BSA as a standard.
# Unfractionated gut extract containing approximately 1 μg of buffer soluble protein was added to 10 μL CAPS buffer (0.5 M, 3-[cyclohexylamino]-1-propane-sulfonic acid, pH 10) and made to a final volume of 100 μL in individual wells of a 96 well microtiter plate. Proteinase inhibitors were added over a range of concentrations and incubated for 15 min at 25° C. Bovine chymotrypsin (100 ng) was used as a positive control, both for activity and inhibition. The chromogenic artificial substrate SAAPFpNA (N-Succinyl-L-alanyl-L-alanyl-L-prolyl-L-phenylalanine 4-nitroanilide) was then added to a final concentration of 1 mM and hydrolysis of the substrate was measured at 405 nm using the SpectraMax 250 microtiter plate reader (Molecular Devices).
# [3] = system: chymotrypsin activity in gut extracts of H. punctigera larvae; test: Inhibition of chymotrypsin activity in individual larval gut extracts (FIG. 2F); assay type: biochemical, Helicoverpa punctigera; settings: 80 nM inhibitor; SAAPFpNA substrate
# Source text: (§2) FIG. 2 is a graphical representation showing growth of H. punctigera larvae fed on either low protein haricot bean artificial diet or cotton leaf artificial diet, in the presence or absence of 0.26% (w/v) NaPIs. Weight gain (mg) was monitored for 21 days. […] (A) Growth of larvae. (B) Relative size of larvae at 21 days after feeding on cotton artificial diet, in the presence or absence of 0.26% NaPIs. […] (C) The effect of NaPIs on gut trypsin and chymotrypsin activity. When each H. punctigera larva reached the late fourth/early fifth instar stage of development, the gut was removed and gut extract prepared prior to assays for trypsin and chymotrypsin activity. […] Trypsin activity was determined using BApNA substrate and chymotrypsin activity with SAAPFpNA substrate. Units of activity are expressed as change in absorbance at 405 nm/min/mg gut extract protein (±standard deviation). […] Trypsin activity was determined using BApNA substrate and chymotrypsin activity with SAAPFpNA substrate. Units of activity are expressed as change in absorbance at 405 nm/min/mg faecal extract protein (±standard deviation). […] Frass extracts were analysed on 15% ((w/v)) SDS-PAGE and transferred to nitrocellulose. […] Units of activity are expressed as substrate hydrolysis at 405 nm/min/mg extract protein (±standard deviation). […] Trypsin activity was determined using BApNA substrate. […]
# [4] = target: NaPI-insensitive chymotrypsins from H. punctigera (Helicoverpa punctigera, UniProt A0PGE0); test: Inhibition of NaPI-insensitive chymotrypsin (gut extract depleted of trypsins and NaPI-sensitive chymotrypsins); assay type: biochemical; settings: pH 10, 30 min preincubation at 30° C.; for % Inhibition Insensitive: at maximum concentration tested
# Description: The midgut was dissected from 100 fourth instar larvae and buffer soluble extracts were prepared. The gut extract was depleted of NaPI-sensitive proteases by passage through an affinity column composed of immobilized NAPI protein (C1, C2, T1-T4). […] This preparation of unbound material was used to study the pH optimum, substrate preference and effect of a range of proteinase inhibitors on the activity of the NaPI-insensitive proteinase. […] The best substrate for enzyme assays was determined using seven different commercial substrates.
# as §1
# [5] = system: trypsin activity in gut extracts of H. punctigera larvae; test: Inhibition of trypsin activity in individual larval gut extracts by T1 (FIG. 2F); assay type: biochemical, Helicoverpa punctigera; settings: 80 nM inhibitor; BApNA substrate
# Source text: as §2
# [6] = system: H. armigera larvae; test: Bioassay of H. armigera larvae on transgenic cotton expressing NaPI and StPotIA (FIG. 27); assay type: in vivo, Helicoverpa armigera
# Description: FIG. 27 is a graphical representation showing growth of H. armigera larvae on transgenic cotton expressing NaPI and PotI. Transgenic cotton cv Coker 315 was used in bioassays with H. armigera. Thirty larvae were fed leaves of either the control untransformed Coker 315, transgenic line 1 (NaPI), transgenic line 2 (StpotIA) or transgenic plant 3 (NaPI×StPot1A). The weight of the larvae was measured at day 7 post-egg hatch. (A) Growth of larvae. At day 7, larvae fed leaves expressing NaPI were 86% of the weight of the control larvae fed untransformed leaves. Larvae fed leaves expressing StPotIA were 92% of the control and larvae fed leaves expressing both NAPI and StPotIA were 46% of the control. (B) The effect of ingestion of NAPI and PotI on gut trypsin and chymotrypsin activity. Gut from the larvae in each experiment were pooled and extracts prepared. All assays were performed in duplicate. Trypsin activity (black) was determined using BApNA substrate and chymotrypsin activity (grey) with SA2PFpNA substrate. Units of activity are expressed as change in absorbance at 405 nm/min/ug gut extract protein. Trypsin activity was reduced, relative to the control, in the extracts from larvae fed leaves expressing NaPI and NaPI+StPotIA. Chymotrypsin activity was elevated in extracts from larvae fed leaves expressing NAPI or NAPI+StPotIA and reduced in extracts from larvae fed StPotIA alone.
# Two gene constructs (pHEX2 and pHEX6) were prepared for transformation of cotton (Gossypium hirsutum). pHEX2 consists of a 35S promoter driving the NaPI gene with a 35S terminator, inserted into the binary vector pBIN 19 (Bevan, Nucl. Acids Research, 12: 8711-8721, 1984). pHEX6 consists of a 35S promoter driving the StPotIA gene with a 35S terminator inserted into the binary vector pBIN 19.
# Transgenic cotton was produced using the method of Umbek et al., Biotechnology, 5: 263-266, 1987) with modifications. Hypocotyl sections of cotton Cv Coker 315 were co-cultivated with Agrobacterium tumefaciens strain LBA 4404 containing the required binary vector. […]
# [7] = system: NaPI-insensitive chymotrypsins from H punctigera; test: Inhibition of NaPI-insensitive chymotrypsins by StPotIA and StPotIB (FIG. 26); assay type: biochemical, Helicoverpa punctigera
# Description: FIG. 26 is a graphical representation showing inhibition of NaPI-insensitive chymotrypsin by bacterially expressed StPotIA and StPotIB. Inhibition of the NAPI-insensitive chymotrypsin from the gut of H. punctigera with purified PotI. (A) substrate SA2PFpNA, development time 30 min, (B) substrate SA2PLpNA, 30 min incubation. Mix of PotI isoforms from potato tuber (circle), StPotIA (square), StPotIB (triangle).
# The inhibitory activity of StPotIA and StPotIB against the NaPI-insensitive chymotrypsins from H punctigera was determined by preincubating the NaPI-insensitive protease (10 μL) with varying amounts of StPotIA and StPotIB (0-600 nM) in 133 mM CAPS buffer, pH 10.0 at 30° C. in 96 well microtitre plates. After the 30 min preincubation, the incubation was started by the addition of substrate (SA2PFpNA, SA2PLpNA or SA2PMpNA) to a final concentration of 1 mM in a final volume of 100 μL. Absorbance was measured at 405 nm after 30 or 60 min.
# NaPI-insensitive chymotrypsins from H. punctigera, sequence (A0PGE0 entry or part of it): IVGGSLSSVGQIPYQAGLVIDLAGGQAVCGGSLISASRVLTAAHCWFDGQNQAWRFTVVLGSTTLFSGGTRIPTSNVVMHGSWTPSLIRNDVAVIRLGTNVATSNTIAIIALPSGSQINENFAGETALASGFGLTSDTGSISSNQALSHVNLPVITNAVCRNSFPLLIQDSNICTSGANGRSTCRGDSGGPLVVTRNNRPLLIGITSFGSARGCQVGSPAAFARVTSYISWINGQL
molecule,measurement,setting,value
"CC(=O)N[C@@H](CC(C)C)C(=O)N[C@@H](CC(C)C)C(=O)N[C@H](C=O)CCCNC(=N)N [Leupeptin, reference compound]",IC50,[1],2400 µM
same,% Inhibition BC,[1],52%
C1: 6 kDa chymotrypsin inhibitor monomer released from the N. alata PI precursor (SEQ ID NO:23) (DRICTNCCAGTKGCKYFSDDGTFVCEGESDPRNPKACTLNCDPRIAYGVCPRSEEKKN; listed as Nicotiana alata),inhibition of gut chymotrypsin activity,[2],70%
same,"inhibition of chymotrypsin activity, extracts of control larvae (in words)",[3],did not inhibit chymotrypsin activity in the extracts of six control larvae and only partially inhibited the gut chymotrypsins in the rest of the controls
"O=S(=O)(F)Cc1ccccc1 [PMSF, phenylmethyl sulphonyl fluoride, reference compound]",% Inhibition Insensitive,[4],100%
T1: 6 kDa trypsin inhibitor monomer released from the N. alata PI precursor (SEQ ID NO:24) (DRICTNCCAGTKGCKYFSDDGTFVCEGESDPRNPKACPRNCDPRIAYGICPLAEEKKN; listed as Nicotiana alata),"inhibition of trypsin activity, extracts from NaPI-fed larvae",[5],could not be inhibited
same,"inhibition of trypsin activity, extracts of control larvae",[5],almost totally inhibited
B1,% Inhibition Insensitive,[4],100%
same,IC50,[4],0.24 µM
same,IC50,[1],0.06 µM
same,% Inhibition BC,[1],100%
same,inhibition of gut chymotrypsin activity (in words),[2],failed to abolish all the chymotrysin activity
B2,larval weight as % of control larvae fed untransformed leaves,"[6]; day 7 post-egg hatch, protein expressed in transgenic cotton leaves",92%
same,effect on larval growth compared to the control (in words),[6]; expression in cotton leaves,small inhibition of larval growth
same,gut chymotrypsin activity,"[6]; pooled gut extracts, SA2PFpNA",reduced
same,inhibition of the NaPI-insensitive chymotrypsin (in words),[7],good inhibitors
same,inhibition of SA2PMpNA hydrolysis,[7]; substrate SA2PMpNA,40%
